Laboratory results published in the supplement of paper PMC12338614.
± gives the uncertainty stated by the source.

B1: library; numbered along this chain (parent)
chain: MEVVDPQQLGMFTEGELMSVGMDTFIHRIDSTEVIYQPRRKRAKLIGKYLMGDLLGEGSYGKVKEVLDSETLCRRAVKILKKKKLRRIPNGEANVKKEIQLLRRLRHKNVIQLVDVLYNEEKQKMYMVMEYCVCGMQEMLDSVPEKRFPVCQAHGYFCQLIDGLEYLHSQGIVHKDIKPGNLLLTTGGTLKISDLGVAEALHPFAADDTCRTSQGSPAFQPPEIANGLDTFSGFKVDIWSAGVTLYNITTGLYPFEGDNIYKLFENIGKGSYAIPGDCGPPLSDLLKGMLEYEPAKRFSIRQIRQHSWFRKKHPPAEAPVPIPPSPDTKDRWRSMTVVPYLEDLHGADEDEDLFDIEDDIIYTQDFTVPGQVPEEEASHNGQRRGLPKAVCMNGTEAAQLSTKSRAEGRAPNPARKACSASSKIRRLSACKQQ

Variants of: B1
Experiment: STK11 functional score (HeLa growth suppression), rescaled enrichment; synonymous median = 1, nonsense median = 0 (normalised score)
Conditions: with HeLa; variant type: missense
How it was run: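 Functional scores are post/pre-selection log ratios corrected to wild type, rescaled to synonymous and nonsense medians, merged over codons and replicate transfections, and given bootstrapped error. They come from POPCode libraries of codon-optimised STK11 integrated by Bxb1 at an AAVS1 landing pad in HeLa, three regions each transfected three times, with BFP-negative, mCherry-positive integrants sorted by FACS and tiled gDNA amplicons sequenced on NextSeq.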

Point of comparison: MEVVDPQQLGMFTEGELMSVGMDTFIHRIDSTEVIYQPRRKRAKLIGKYLMGDLLGEGSYGKVKEVLDSETLCRRAVKILKKKKLRRIPNGEANVKKEIQLLRRLRHKNVIQLVDVLYNEEKQKMYMVMEYCVCGMQEMLDSVPEKRFPVCQAHGYFCQLIDGLEYLHSQGIVHKDIKPGNLLLTTGGTLKISDLGVAEALHPFAADDTCRTSQGSPAFQPPEIANGLDTFSGFKVDIWSAGVTLYNITTGLYPFEGDNIYKLFENIGKGSYAIPGDCGPPLSDLVKGMLEYEPAKRFSIRQIRQHSWFRKKHPPAEAPVPIPPSPDTKDRWRSMTVVPYLEDLHGADEDEDLFDIEDDIIYTQDFTVPGQVPEEEASHNGQRRGLPKAVCMNGTEAAQLSTKSRAEGRAPNPARKACSASSKIRRLSACKQQ [L286V], STK11 functional score 1.14 ± 0.18. Against it:
- MEVVDPQQLGMFTEGELMSVGMDTFIHRIDSTEVIYQPRRKRAKLIGKYLMGDLLGEGSYGKVKEVLDSETLCRRAVKILKKKKLRRIPNGEANVKKEIQLLRRLRHKNVIQLVDVLYNEEKQKMYMVMLYCVCGMQEMLDSVPEKRFPVCQAHGYFCQLIDGLEYLHSQGIVHKDIKPGNLLLTTGGTLKISDLGVAEALHPFAADDTCRTSQGSPAFQPPEIANGLDTFSGFKVDIWSAGVTLYNITTGLYPFEGDNIYKLFENIGKGSYAIPGDCGPPLSDLLKGMLEYEPAKRFSIRQIRQHSWFRKKHPPAEAPVPIPPSPDTKDRWRSMTVVPYLEDLHGADEDEDLFDIEDDIIYTQDFTVPGQVPEEEASHNGQRRGLPKAVCMNGTEAAQLSTKSRAEGRAPNPARKACSASSKIRRLSACKQQ [E130L] — lower, 0.308 ± 0.083
- MEVVDPQQLGMFTEGELMSVGMDTFIHRIDSTEVIYQPRRKRAKLIGKYLMGDLLGEGSYGKVKEVLDSETLCRRAVKILKKKKLRRIPNGEANVKKEIQLLRRLRHKNVIQLVDVLYNEEKQKMYMVMEYCVCGMQEMLDSVPEKRFPVCQAHGYFCQLIDGLEYLHSQGIVHKDIKPGNLLLTTGGTLKISDLGVAEALHPFAADDTCRTSQGSPAFQPPEIANGLDTFSGFKVDIWSAGVTLYNITTGLYPFEGDNIYKLFENIGKGSYAIPGDCGPPLSDLLKGMLEYEPAKRFSIRQIRQHSWFRKKHPPAEARVPIPPSPDTKDRWRSMTVVPYLEDLHGADEDEDLFDIEDDIIYTQDFTVPGQVPEEEASHNGQRRGLPKAVCMNGTEAAQLSTKSRAEGRAPNPARKACSASSKIRRLSACKQQ [P319R] — within error, 1.53 ± 0.26
- MEVVDPQQLGMFTEGELMSVGMDTFIHRIDSTEVIYQPRRKRAKLIGKYLMGDLLGEGSYGKVKEVLDSETLCRRAVKILKKKKLRRIPNGEANVKKEIQLLRRLRHKNVIQLVDVLYNEEKQKMYMVMEYCVCGMQEMLDSVPEKRFPVCQAHGYFCQLIDGLEYLHSQGIVHKDIKPGNLLLTTGGTLKISDLGVAEALHPFAADDTCRTSQGSPAFQPPEIANGLDTFSGFKVDIWSAGVTLYNITTGLYPFEGDNIYKLFENIGKGSYAIPGDCGPPLSDLLKGMLMYEPAKRFSIRQIRQHSWFRKKHPPAEAPVPIPPSPDTKDRWRSMTVVPYLEDLHGADEDEDLFDIEDDIIYTQDFTVPGQVPEEEASHNGQRRGLPKAVCMNGTEAAQLSTKSRAEGRAPNPARKACSASSKIRRLSACKQQ [E291M] — higher, 1.66 ± 0.17
- MEVVDPQQLGMFTEGELMSVGMDTFIHRIDSTEVIYQPRRKRAKLIGKYLMGDLLGEGSYGKVKEVLDSETLCRRAVKILKKKKLRRIPNGEANVKKEIQLLRRLRHKNVIQLVDVLYNEEKQKMYMVMEYCVCGMQEMLDSVPEKRFPVCQAHGYFCQLIDGLEYLHSQGIVHKDIKPGNLLLTTGGTLKISDLGVAEALHPFAADDTCRTSQGSPAFQPPEIANGLDTFSGFKVDIWSAGVTLYNITTGLYPFEGDNIYKLFENIGKGSYAIPGDCGPPLSDLLKGMLEYEPAKRFSIRQIRQHSWFRKKHPPAEAPVPIPPSPDTKDRWRSMTVVPYLEDLHGADEDEDLFDIEDDIIYTQDFTVPGQVPEEEASHNGQRRGLPKAVCMNGTEAAQLSSKSRAEGRAPNPARKACSASSKIRRLSACKQQ [T402S] — within error, 1.31 ± 0.18
- MEVVDPQQLGMFTEGELMSVGMDTFIHRIDSTEVIYQPRRKRAKLIGKYLMGDLLGEGSYGKVKEVLDSETLCRRAVKILKKKKLRRIPNGEANVKKEIQLLRRLRHKNVIQLVDVLYNEEKQKMYMVMEYCVCGMQEMLDSVPEKRFPVCQRHGYFCQLIDGLEYLHSQGIVHKDIKPGNLLLTTGGTLKISDLGVAEALHPFAADDTCRTSQGSPAFQPPEIANGLDTFSGFKVDIWSAGVTLYNITTGLYPFEGDNIYKLFENIGKGSYAIPGDCGPPLSDLLKGMLEYEPAKRFSIRQIRQHSWFRKKHPPAEAPVPIPPSPDTKDRWRSMTVVPYLEDLHGADEDEDLFDIEDDIIYTQDFTVPGQVPEEEASHNGQRRGLPKAVCMNGTEAAQLSTKSRAEGRAPNPARKACSASSKIRRLSACKQQ [A153R] — lower, 0.204 ± 0.096
- MEVVDPQQLGMFTEGELMSVGMDTFIHRIDSTEVIYQPRRKRAKLIGKYLMGDLLGEGSYGKVKEVLDSETLCRRAVKILKKKKLRRIPNGEANVKKEIQLLRRLRHKNVIQLVDVLYNEEKQKMYMVMEYCVCGMQEMLDSVPEKRFPVCQAHGYFCQLIDGLEYLHSQGIVHKDIKYGNLLLTTGGTLKISDLGVAEALHPFAADDTCRTSQGSPAFQPPEIANGLDTFSGFKVDIWSAGVTLYNITTGLYPFEGDNIYKLFENIGKGSYAIPGDCGPPLSDLLKGMLEYEPAKRFSIRQIRQHSWFRKKHPPAEAPVPIPPSPDTKDRWRSMTVVPYLEDLHGADEDEDLFDIEDDIIYTQDFTVPGQVPEEEASHNGQRRGLPKAVCMNGTEAAQLSTKSRAEGRAPNPARKACSASSKIRRLSACKQQ [P179Y] — lower, 0.059 ± 0.1
- MEVVDPQQLGMFTEGELMSVGMDTFIHRIDSTEVIYQPRRKRAKLIGKYLMGDLLGEGSYGKVKEVLDSETLCRRAVKILKKKKLRRIPNGEANVKKEIQLLRRLRHKNVIQLVDVLYNEEKQKMYMVMEYCVCGMQEMLDSVPEKRFPVCQAHGYFCQLIDGLEYLHSQGIVHKDIKPGNLLLTTGGTLKISDLGVAEALHPFAADDTCRTSQGSPAFQPPEIANGLDTFSGFKVDIWSAGVTLYNITTGLYPFEGDNIYKLFENIGKGSYAIPGDCGPPLSDLLKGMLEYEPAKRFSIRQIRQHSWFRKKHPPAEAPVPIPPSPDTKDRWRSMTVVPYLEDLHGADEDEDLFDIEDDIIYEQDFTVPGQVPEEEASHNGQRRGLPKAVCMNGTEAAQLSTKSRAEGRAPNPARKACSASSKIRRLSACKQQ [T363E] — higher, 1.6 ± 0.22
- MEVVDPQQLGMFTEGELMSVGMDTFIHRIDSTEVIYQPRRKRAKLIGKYLMGDLLGEGSYGKVKEVLDSETLCRRAVKILKKKKLRRIPNGEANVKKEIQLLRRLRHKNVIQLVDVLYNEEKQKMYMVMEYCVCGMQEMLDSVPEKRFPVCQAHGYFCQLIDGLEYLHSQGIVHKDIKPGNLLLTTGGTLKISDLGVAEALHPFAADDTCRTSQGSPAFQPPEIANGLDTFSGFKVDIWSAGVTLYNITTGLYPFEGDNIYKLFENIGKGSYAIPGDCGPPLSDLLKGMLEYEPAKRFSIRQIRQHSWFRKKHPPAEAPVPIPPSPDTKDRWRSMTVVPYLEDLHGADEDEDLFDIEDDIIYTQDFTVPGQVPEEEASHNGQRRGLPKFVCMNGTEAAQLSTKSRAEGRAPNPARKACSASSKIRRLSACKQQ [A389F] — within error, 1.33 ± 0.27
- MEVVDPQQLGMFTEGELMSVGMDTFIHRIDSTEVIYQPRRKRAKLIGKYLMGDLLGEGSYGKVKEVLDSETLCRRAVKILKKKKLRRIPNGEANVKKEIQLLRRLRHKNVIQLVDVLYNEEKQKMYMVMEYCVCGMQEMLDSVPEKRFPVCQAHGYFCQLIDGLEYLHSQGIVHKDIKPGNLLLTTGGTLKISDLGVAEALHPFAADDTCRTSQGSPAFQPPEIANGLDTFSGFKVDIWSAGVTLYNITTGLYPFEGDNIYKLFENIGKGSYAIPGDCGPALSDLLKGMLEYEPAKRFSIRQIRQHSWFRKKHPPAEAPVPIPPSPDTKDRWRSMTVVPYLEDLHGADEDEDLFDIEDDIIYTQDFTVPGQVPEEEASHNGQRRGLPKAVCMNGTEAAQLSTKSRAEGRAPNPARKACSASSKIRRLSACKQQ [P281A] — lower, 0.84 ± 0.1
- MEVVDPQQLGMFTEGELMSVGMDTFIHRIDSTEVIYQPRRKRAKLIGKYLMGDLLGEGSYGKVKEVLDSETLCRRAVKILKKKKLRRIPNGEANVKKEIQLLRRLRHKNVIQLVDVLYNEEKQKMYMVMEYCVCGMQEMLDSVPEKRFPVCQAHGYFCQLIDGLEYLHSQGIVHKDIKPGNLLLTTGGTLKISDLGVAEALHPFAADDTCRTSQGSPAFQPPEIANGLDTFSGFKVDIWSAGVTLYNITTGLYPFEGDNIYKLFENIGKGSYAIPGDCGPPLSDLLKGMLEYEPAKRFSIRQIRQHSWFRKKHPPAEAPVPIPPSPYTKDRWRSMTVVPYLEDLHGADEDEDLFDIEDDIIYTQDFTVPGQVPEEEASHNGQRRGLPKAVCMNGTEAAQLSTKSRAEGRAPNPARKACSASSKIRRLSACKQQ [D327Y] — within error, 1.36 ± 0.08
- MEVVDPQQLGMFTEGELMSVGMDTFIHRIDSTEVIYQPRRKRAKLIGKYLMGDLLGEGSYGKVKEVLDSETLCRRAVKILKKKKLRRIPNGEANVKKEIQLLRRLRHKNVIQLVDVLYNEEKQKMYMVMEYCVCGMQEMLDSVPEKRFPVCQAHGYFCQLIDGLEYLHSQGIVHKDIKPGNLLLTTGGTLKISDLGVAEALHPFAADDTCRTSQGSPAFQPPEIANGLDTFSGFKVDIWSAGVTLYNITTGLYPFEGDNTYKLFENIGKGSYAIPGDCGPPLSDLLKGMLEYEPAKRFSIRQIRQHSWFRKKHPPAEAPVPIPPSPDTKDRWRSMTVVPYLEDLHGADEDEDLFDIEDDIIYTQDFTVPGQVPEEEASHNGQRRGLPKAVCMNGTEAAQLSTKSRAEGRAPNPARKACSASSKIRRLSACKQQ [I260T] — within error, 1.33 ± 0.69
- MEVVDPQQLGMFTEGELMSVGMDTFIHRIDSTEVIYQPRRKRAKLIGKYLMGDLLGEGSYGKVKEVLDSETLCRRAVKILKKKKLRRIPNGEANVKKEIQLLRRLRHKNCIQLVDVLYNEEKQKMYMVMEYCVCGMQEMLDSVPEKRFPVCQAHGYFCQLIDGLEYLHSQGIVHKDIKPGNLLLTTGGTLKISDLGVAEALHPFAADDTCRTSQGSPAFQPPEIANGLDTFSGFKVDIWSAGVTLYNITTGLYPFEGDNIYKLFENIGKGSYAIPGDCGPPLSDLLKGMLEYEPAKRFSIRQIRQHSWFRKKHPPAEAPVPIPPSPDTKDRWRSMTVVPYLEDLHGADEDEDLFDIEDDIIYTQDFTVPGQVPEEEASHNGQRRGLPKAVCMNGTEAAQLSTKSRAEGRAPNPARKACSASSKIRRLSACKQQ [V110C] — within error, 0.955 ± 0.44
- MEVVDPQQLGMFTEGELMSVGMDTFIHRIDSTEVIYQPRRKRAKLIGKYLMGDLLGEGSYGKVKEVLDSETLCRRAVKILKKKKLRRIPNGEANVKKEIQLLRRLRHKNVIQLVDVLYNEEKQKMYMVMEYCVCGMQEMLDSVPEKRFPVCQAHGYFCQLIDGLEYLHSQGIVHKDIKPGNLLLTTGGTLKISDLGVAEALHPFAADDTCRTSQGSPAFQPPEIANGLDTFSGFKVDIWSAGVTLYNITTGLYPFEGDNIYKLFENIGKGSYAIPGDCGPPLSDLLKGMLEYEPAKRFSIRQIRQHSWFRKKHPPAEAPVPIPPSPDTKDRWRSMTVVPYLEDLHGADEDEDLFDIEDDIIYTQDFTVPGQVPEEEASLNGQRRGLPKAVCMNGTEAAQLSTKSRAEGRAPNPARKACSASSKIRRLSACKQQ [H379L] — within error, 1.09 ± 0.32
